Results published in the DeepSol protein solubility set.

Experiment: soluble on expression in E. coli; label from the status in PepcDB or PDB records

Row | Sequence | soluble on expression in E. coli
1 | MGSSHHHHHHSSGLVPRGSHMWIGVISLFPEMFKAITEFGVTGRAVKHNLLKVECWNPRDFTFDKHKTVDDRPYGGGPGMLMMVQPLRDAIHTAKAAAGEGAKVIYLSPQGRKLDQGGVTELAQNQKLILVCGRYEGIDERLIQTEIDEEWSIGDYVLTGGELPAMTLIDAVARFIPGVLGKQASAEEDSFADGLLDCPHYTRPEVLEGLTVPPVLMSGHHEEIRKWRLKQSLQRTWLRRPELLEGLALTDEQRKLLKEAQAEHNSLEHHHHHH | soluble
2 | LAGLALAATLLATGKRPVPDQLAGYHETTLSVGHRDVPVSLHIWYPAAQDGTAELVGQNALFYGQYVLRDAKPAPGAHPVVVFSHGSGGNANNHGWLATELARQGMIVVAPNHPGTMSRDSDPHRTPHIWERARDLHAILDSLETNPPLGMQPDMDRVASAGFSLGGFSALSIAGVRVSKAAFIDYCDRHAGEFDCGWMQAASVDFAAIDPAAYEADYRDPRIKATVSIDPALPQAMTGDSLTAATLPILLVSLGQGEEVPPATRVDAMARQMPQARLVETPGAWHFSFLSECSTLGWIIIGLMGEENICSDIGMRDRGVLHEELKAVISTFLS | not soluble
3 | SAGTQLFRFREEPGPGGNRAVLEVRVPQVLHVQYGMYVWPCAVVLAQYLWFHRRSLPGKAVLEVGAGVSLPGILAAKCGAKVILSDSSEFPHCLDICRQSCQMNNLPQVEVVGLTWGHISKDILSLPPQDIILGSDVFFEPEDFESILATVYFLMQKNPKVQFWSTYQVRSADWSLEGLLYKWDMKCVHIPLESFDADKEDIAESTLPGRHTVEMLIISFAKDSF | soluble
4 | MGSDKIHHHHHHMRVAPAYGKIALLISVSFSHGRHSVQDKNFDALAGKFAKNIYGTPKGEVRAAVLWRDISQAMTQLPEGPLRILDAGGGFGFFSQKLAKLGHSVTLCDISSEMLALGQAQITEYENNSGEKLDITLLHAPIQSLTREELGQFDLILCHAVAEWLSDAKQTLAGLTQLLKPQGLFSLMFYNKEAMRFHSLISGNFDYVAADFKVKKKVGLTPSYPLYIDDVRGWVSDWQMELVTASGVRVIHDYLKTHQPPNSDFSQLLEMELQYSTHPAYIGLGRYVHFITRWQR | not soluble
5 | EAAPAPAGKGKILAVTACPTGIAHTFMAADALKEKAKELGVEIKVETNGSSGIKHKLTAQEIEDAPAIIVAADKQVEMERFKGKRVLQVPVTAGIRRPQELIEKAMNQDAPIYQGSGGGSA | not soluble
6 | MGSDKIHHHHHHMADYTKMWSELGLDLKSHDALLSILGSAYGDIFLSQKDRPEGMKYFDFVMSEVHGLRIQELMEAKARGRIVVGSYCVFVPEELILAVDGVSVGLCAGAEFNFEGAEEVLPRNTCALIKSAFGFKFGKVCPYLEACDVVVGENTCDGKKKAYEILGPLVTDLYVIDLHQTKSDMGRALLKEEYRRFAAKLESVSGKKITPDSLKKGIEVVNAKRMAVKRLAAIRAADPAPISGLDALLVNQVFFYDDPVRFTHSVNQLCDELEERVKQGIGVFAQGTTRVIVSGCPMAVPNWKLPMLIESSNAVIVGEESCVGERGTRWLTEFRGETEEDLLDALTERYFSIDCAVFTPNPSRVDYVKEMTKKLNAQGVIHYSLQFCQPHMVESGPVEKELEKSGIPTLRLETDYSQEDAGQLKTRIEAFVERLENK | not soluble
7 | MLKQLLEQATSNNGKARLYAFENTVELTNLIPPTVSYESGGNTLIVGPTAIIESAAAQLSQMNSLTLLSTDGEKGTNPELYYANSVQVSGFLGTFEVLIENHGSTNNLAKVAINSDCFDIVLDLCLNSCMSEEVPVPGYYPVGRGYPKLAEALEEIPTLMGTFDKPKFFRLDTDLCAHSSRGVKGCERCVDACPAGALSSEGSDKTGHRIEINPYLCQGVGTCATACPTEAIHYALPNPEDTQKFIERTLANYEQAGGLDPIVLICSSRHESYNVMALKALPDNVIPIVVEELPSVGIDTWFAALVNGATQVLFAASRFMPQTIIRVLNSEVGIAQELLDQLGIAKETIDILYLESLREGAPTLCTESFDLALGDLQGNKRQRLFTALDALSASRIPVENIVELPANAPYGTVSCESKDC | not soluble
8 | MPKSNRRIVRARDSKGRFLPGKKAKSVASKSRSRSRSRSVVSRKTTRTNSLTRRRSSTKAPSSARQSRSRSRSRSRSRSKSRSTSSRRSRSRSARRVSFKRGRPASFAMKSPEEKTAAKKTAAKIILRVD | not soluble
9 | MEAYNVQNLYQCLNCDDYHLCNGSLNCDPLVDREGIVCTVTGKYIQCNVRELEHHHHHH | soluble
10 | MGSDKIHHHHHHMKKLSHQFDKPKRSVASPEALEALRNNNAVRWYVLSLPDCHRGGVRGLQREQDRRIQAGEPSFGFFAPSYQEVRRIDGKFVNTQRPLLFNYVFVRASERDVFQLMQRFPVLSFLPRVRERKREYFPYLSDAAMENLQWVARSYSNTLPVYIPQPDGLRKGDRIRITEGRFKGVEATVVIQPGAGRKDVMVCVENWMWVPLLRVMPGEYEVIALNDEDKHVYTRLDNDCMLNGLHSALQRYHSAEGVNEEDRSLAARALKEYGNLRMDTDVMRCKLYAILLPAYTILGMEEEAAKLVGVMQTMLPLVKAEQSRALAVVTLYGCTDSSIYYHLAHEAVDPWKKEEKPKKSKQQLINRLADYDRWLRH | not soluble
11 | MTFGAGHLRAAEALIEAVRKKSPEAEITHLDFGAFISKTLNTIVKNTYIELIKHTPRLYGMFYYRTSKIRPQSLIQRFINILGRKEFLDYIKGLNPDVIICTYPVIAGVLGELRFKGVIHAPVVSVVTDYGVHSQYIQRGVDLYIAGCQDVYKDLIAGGIARERIRITGIPVDPKFEEELEHHHHHH | not soluble
12 | MCLGVPAQIAEIHDSTRATVSMSGVSRMVSTDLLAETIDVGDWVLIHVGFALSKIDEDEAAVTLQQIKQLGGFDEELQSFESSEI | not soluble
13 | SRAYDLVVIGAGSGGLEAGWNAASLHKKRVAVIDLQKHHGPPHYAALGGTCVNVGCVPKKLMVTGANYMDTIRESAGFGWELDRESVRPNWKALIAAKNKAVSGINDSYEGMFADTEGLTFHQGFGALQDNHTVLVRESADPNSAVLETLDTEYILLATGSWPQHLGIEGDDLCITSNEAFYLDEAPKRALCVGGGYISIEFAGIFNAYKARGGQVDLAYRGDMILRGFDSELRKQLTEQLRANGINVRTHENPAKVTKNADGTRHVVFESGAEADYDVVMLAIGRVPRSQTLQLEKAGVEVAKNGAIKVDAYSKTNVDNIYAIGDVTDRVMLTPVAINEGAAFVDTVFANKPRATDHTKVACAVFSIPPMGVCGYVEEDAAKKYDQVAVYESSFTPLMHNISGSTYKKFMVRIVTNHADGEVLGVHMLGDSSPEIIQSVAICLKMGAKISDFYNTIGVHPTSAEELCSMRTPAYFYEKGKRVEKIDSNL | soluble
14 | MQKFIIHKGIACPLEYANIDTDQIIPKQFLLAVSKQGFGKHLFHDLRYLDDKESVLNMDFNLNKKEYQNSSILVSFENFGSGSSREHAPWALVDYGIRAIIAPSFADIFKNNALGNGLLTIELAKDEVLEIVDELKKSQDKNIEISLLEKRVFFKDKIFSFDLDDFHRICLLEGLDNIALTLKHEAQIKAYEKNSKSFLV | soluble
15 | MVDFKMTKEGLVLLIKDYQNLEEVLNAISARITQMGGFFAKGDRISLMIENHNKHSQDIPRIVSHLRNLGLEVSQILVGSTVEGKENDLKVQSRTTVESTGKVIKRNIRSGQTVVHSGDVIVFGNVNKGAEILAGGSVVVFGKAQGNIRAGLNEGGQAVVAALDLQTSLIQIAGFITHSKGEENVPSIAHVKGNRIVIEPFDKVSFERSE | soluble
16 | MGSDKIHHHHHHAGTQTAQTQALDSDGIPTGGEWITMFDGKTLNGWRGYCRQDVPLGWVVEDGSITYKGSDNKADTGFGDLIYDKKFKNFVFEIEWKIDKAGNSGIFYTAQEIEGTPIYYSSPEYQLLDNENMPDAWEGCDGNRQAGAVYDMIMPDPQPVKPYGNWNKTRIVVYNQRVIHYMNDVKILEFQFGTPVWRALVDHSKFSKFSTSPEKCPEAYDLMLQCGKQPGYIGMQDHGYGVCFRNIRIKEL | not soluble
17 | AIAATPTEHEDLSEQEVTEDEFKTPKIRETPEDIKLEAIVNTIAFHPKQDILAAGDIDGDIYLFSYSCTEGENKELWSSGHHLKSCRKVLFSSDGQKLFSVSKDKAIHIMDVEAGKLETRIPKAHKVPINAMLLIDENIFATGDDEGTLKVWDMRKGTSFMDLKHHEDYISDITIDQAKRTLLTSSGDGTLGVFNIKRRRFELLSEIQNGDLTSVSIMKRGRKVVCGSGEGTIYIFNWNGFGATSDRFAVQAESVDCIVPITDSILCAASTDGVIRAINILPNRVVGSIGQHVGEAIEEIARCRDTHFLASCAHDELIKFWDISSLPDEKVNDYRRRKKKDRRLKALSNKAFDTGQNFFAGLLDTTEENGKEGENDEDDDDEDSDSGSD | soluble
18 | MGSDKIHHHHHHMEHISQLTAEIRDKAAYPDILVISRIFLPKEAVIGEYMYNRCLQDPERVIVLAASCSGDKVFDEGQQFPVYRWFYPRYWRSGFVGNILKPFVNIVCSFVLAIKLYFRYHYRYIEWGHGYDFPSLLLLSYLLPIRFFIYLHGNDFLCTLHNPVLRSLFKLTLKRAEGIVCNSSYTQDYLRTALRLDTPTYVINPVIRPEKFGNNVGSPSSLDDLRVRVRQAYNIPDSAIVILSIGRLVKHKAFDQVIDNIPLLLTFGVDVHYIICGEGPSESELKSLVHRLRVDKCVHFAGYVAERELAGYYAACDIFAMLTLLDSKPNNMEGFGMVYLEASYFGKPIIAPRLGGVLDTVQHEENGILVNPNSGYEVFQAFNRLCKDQQLREQLGRKGKELAKRRTLHRSLYKSEGKNPIL | not soluble
19 | MAQSNTTTTTLVVKSEDQEEVQEEHVLRLRAPPSPPHVTWAEGVVDNEHMGRLKSNCCCIYVAPRQWDDPSTWEPNEYETEHCRGHTLPERKKKKEDGGDEGDDENKENKDNKDNKDNKDNKDNNGCGCDHC | not soluble
20 | MSELSGKGCEIIVPFEERLPVRDIEKSIIKKYRKNLWSKFMKAIRDYKLVEEGDKIAVAISGGKDSILMAKMFQELKKHGQVNFDVEFIAMDPGYHANIRQLLIDNCEYLNIPIHLFDSRIFEIADEIAKDYPCYMCARMRRGALYSKAEELGCNKLALGHHYDDVIETTMLNLLCAGNFKTMLPKLNSTNFEGIKIIRPLYYIREEHIIRFIQNSGIWPLNCAC | not soluble
21 | MKTFKLVGLSVIDDDMHRQDIPFIDGLIINKEDGQNRWLVEAYLDDDYEPMFVSLQRRPEFQLQVTITHTSNDPANMLVTVRSITKMNGHISVLMEGLMIPRRTHLAEVVLAGLVKKGLQGEALLQEFRQQMHERIDAKAPQERKR | not soluble
22 | MSLGTVHARSLDPLPMQGPELGVQADDMDLGEPEREEKQEVLENKDVVVQHVHIDGLGRTKEDILTYEIADVFHAKNLIDVMKKSHEARQKLLRLGIFRHVEVVIDTAEGADALPNGLDVTFEVRELRRMTGSYNTMVGNNEGSMVLGIKLPNVLGRAEKLTFQFSYGTKETSYGLSFFKPQPGHFERNFSLNLYKVTGQFPWSSLRETDRGVSAEISFPIWRTSHTLKWEGVWRELGCLARTASFAVREESGHSLKSSLAHAMVIDTRNSTILPRKGALLKINQELAGYTGGDVSFLKEDFEIQLNKTLFWDSVLSTSLWGGMLLPLGEKASSIADRFYLGGPTSVRGFSMYSIGPQSEGDYLGGEAYWAGGVHLYTPLPFRPGRGGFGDLFRTHFFLNAGNLCNLNYGEGPRAHLSKLAECIRWSYGAGIVLRLGNIARLELNYCIPMGVQSGDRICDGVQFGAGIRFLEGHHHHHH | not soluble
